Test results taken from patent US20250332297A1, “DLL3-SPECIFIC BINDING CONSTRUCTS AND THEIR USE IN RADIOTHERAPY” (MOLECULAR PARTNERS AG, priority 2024, published 2025).

Columns and labels:
[1] = target: T1, Human DLL3 expressed on cells (HEK293T-hDLL3, NCI-H82, SHP-77, MC38-hDLL3) (human, UniProt Q9NYJ7 27-618); assay: flow cytometry titration on HEK293T-hDLL3 cells, with HSA
T1 construct: also called DLL3 endogenously expressed on human cells
T1 sequence: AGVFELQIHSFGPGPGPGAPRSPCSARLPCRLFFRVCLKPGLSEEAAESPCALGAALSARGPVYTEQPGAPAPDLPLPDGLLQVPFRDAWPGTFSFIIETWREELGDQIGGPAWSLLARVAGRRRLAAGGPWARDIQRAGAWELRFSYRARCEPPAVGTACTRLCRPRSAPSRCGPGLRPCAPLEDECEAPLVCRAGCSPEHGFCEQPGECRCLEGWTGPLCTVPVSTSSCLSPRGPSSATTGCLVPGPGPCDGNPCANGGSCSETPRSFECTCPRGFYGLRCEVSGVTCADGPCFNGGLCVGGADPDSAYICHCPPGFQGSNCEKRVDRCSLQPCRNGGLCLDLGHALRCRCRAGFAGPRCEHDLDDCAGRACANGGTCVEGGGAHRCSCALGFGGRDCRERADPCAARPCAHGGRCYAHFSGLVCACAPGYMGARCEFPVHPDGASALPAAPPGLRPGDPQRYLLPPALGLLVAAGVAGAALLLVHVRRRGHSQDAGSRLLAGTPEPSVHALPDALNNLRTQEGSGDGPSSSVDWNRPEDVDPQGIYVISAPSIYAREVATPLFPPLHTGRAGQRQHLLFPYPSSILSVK
Protocol: (§1) Cell binding titration assays were performed for selected His-tagged single domain (1 D) and two domain (2D) designed ankyrin repeat proteins to determine binding to human DLL3 expressed on HEK293T-huDLL3 cells in absence and presence of human serum albumin. […] HEK293T-hDLL3 cells are HEK293T cells that were stably transfected to express human DLL3 on their surface.
(§2) In brief, 1×10⁵ cells/well were resuspended in 100 μl DARPin dilution (500 nM, 1:5 serial diluted) and incubated for 1 h at 4° C. Cells were washed twice with PBS and resuspended in 100 μl anti-DARPin antibody (rabbit anti-DARPin 1.4.8) and LIVE/DEAD fixable cell stain (1:1000, Thermo Fisher #L34957). This step was performed in absence and presence of […] Human Serum Albumin (CSL Behring #150570). After incubation and washing, cells were incubated with detection antibody for 30 minutes (Goat […] IgG (H+L), AF647, Thermo Fisher #21445). Cells were fixed (Paraformaldehyde Solution, LucernaChem) and acquired at Attune N×T (Thermo Life Technologies). Raw fcs files were exported and analyzed using FlowJo software. MFI values of live AF647-positive cells were exported from FlowJo and plotted using GraphPad Prism software.

[2] = target: T1, Human DLL3 expressed on cells …; assay: flow cytometry titration on HEK293T-hDLL3 cells, without HSA
Protocol: as §1, §2

NCI-H82 tumor model = assay: Biodistribution of radio-labelled DARPin conjugates in NCI-H82 tumor model; settings: mouse, in vivo, iv, 0.01 mg/kg
Protocol: NCI-H82 tumor model. R2G2 mice were purchased from Envigo. All studies were conducted under the approval of the institutional IACUC committee. Animals were maintained under specific-pathogen-free (SPF) conditions with daily cycles of light and darkness (12 h/12 h), in line with ethical guidelines. No manipulations were performed during the first 5 days after arrival, to allow the animals to acclimatize to the new environment. All mice were monitored daily for assessment of physical condition and general well-being. NCI-H82 cells were purchased from ATCC (Catalog No. HTB-175). Solid xenografts were established by subcutaneous (SQ) injection of NCI-H82 cells in RPMI media mixed 1:1 with Corning® Matrigel® basement membrane matrix (GFR; Corning, Cat No 354230.). Cells were quantified using Countess cell counter. Each mouse was injected SQ with 5×10^6 NCI-H82 cells in 100 μL RPMI/GFR-Matrigel into the right flank of each mouse. Tumor volumes were estimated three times per week through calipering, according to the formula: volume=0.5×length×width^2 and grown until they reached 200-300 mm^3. Tumor-associated antigen level expressed in tumors, tumor vascularization profile and DLL3 soluble form in mouse serum was tested.
Biodistribution study. […] Radio-labeled (Pb-212) DARPin conjugates were then injected at 0.01 mg/kg (10 μCi DARPin conjugates) into the tail vein of R2G2 mice (females) xenografted subcutaneously (at age of about 7 weeks) with NCI-H82 cells (5 million cells, growth factor reduced Matrigel) and bearing tumors (5-10 mm in diameter). […] Biodistribution was monitored at 4 h and 24h post-injection. Mice were euthanized by CO2 inhalation and cervical dislocation. Blood, spleen, kidneys, liver and tumor were extracted, weighed and the radioactivity was determined with a γ-counter counter (such as Wizard^22470, Perkin Elmer). The data were expressed as the % injected dose/gram (% ID/g).
Radio-labeled (Pb-212) DARPin conjugates were then injected at 0.01 mg/kg (10 μCi DARPin conjugates) into the tail vein of R2G2 mice (females) xenografted subcutaneously (at age of about 7 weeks) with NCI-H82 cells (5 million cells, growth factor reduced Matrigel) and bearing tumors (5-10 mm in diameter). Biodistribution was monitored at 4 h and 24h post-injection. Mice were euthanized by CO2 inhalation and cervical dislocation. Kidneys and tumor were extracted, weighed and the radioactivity was determined with a γ-counter counter (such as Wizard^22470, Perkin Elmer). The data were expressed as the % injected dose/gram (% ID/g) and the tumor to kidney (T:K) ratio was determined.
Radio-labelled (Pb-212) DARPin conjugates were then injected at 0.01 mg/kg (10 μCi DARPin conjugates) (i) into the tail vein of R2G2 mice (females) xenografted subcutaneously (at age of about 7 weeks) with NCI-H82 cells (5 million cells, growth factor reduced Matrigel) and bearing tumors (5-10 mm in diameter), and (ii) into the tail vein of athymic nude mice (females) xenografted subcutaneously (at age of about 7 weeks) with hDLL3-MC38 cells (5 million cells, growth factor reduced Matrigel) and bearing tumors (5-10 mm in diameter). Biodistribution was monitored at 4 h and 24h post-injection. Mice were euthanized by CO2 inhalation and cervical dislocation. Blood, bladder, small intestine, colon, spleen, kidneys, liver, lung, heart, tail and tumor were extracted, weighed and the radioactivity was determined with a γ-counter (such as Wizard^22470, Perkin Elmer). The data were expressed as the % injected dose/gram (% ID/g).

NCI-H82 tumors = assay: Efficacy (tumor growth) in NCI-H82 tumor model; format: in vivo, mouse; settings: Dunnett's multiple comparisons test, tumor volume in mm^3, NCI-H82, R2G2 mice
Protocol: To determine the efficacy of radio-labelled (Pb-212) DARPin (MAM279) conjugate in inhibiting the growth of tumors that express DLL3, different dose regimens (single or repeated dose) of the conjugate were tested in a relevant mouse tumor model (NCI-H82).
Animals were under observation daily and 3× per week tumors were measured by caliper. Animals were sacrificed when tumors reached 1500 to 2000 mm^3 or if termination criteria were met. The data were expressed as average+/−SEM of tumor volume in mm^3.
To determine the efficacy of more frequent repeat-dosing of radio-labelled (Pb-212) DARPin (MAM279) conjugate in inhibiting the growth of tumors that express DLL3, a weekly repeat-dosing regimen of the conjugate was tested in a relevant mouse tumor model (NCI-H82).
Corresponding injections of buffer only were done as control. The first weekly injection of radio-labeled molecules was done 14 days after xenografting the NCI-H82 cells. Animals were under observation daily and 3× per week tumors were measured by caliper. Animals were sacrificed when tumors reached 1500 to 2000 mm^3 or if termination criteria were met. The data were expressed as average+/−SEM of tumor volume in mm^3. Results are shown in FIGS. 20A to 20D and Table 23.

B1: MAM112 (single domain ankyrin repeat protein, His-tagged) (designed binder)
chain: DLGKKLLAAAADGQDDEVRELLQAGADVNAKDLFGYTPLHLAAWRGHLEIVEVLLEAGADVNAKDAAGETPLHLAAWFGHLEIVEVLLEAGADVNAQDVQGKTPADLAAKEGHEDIAEVLQQAA
notes: also called 1D DARPin; not shown: His-tag
With B1 the EC50 [1] was 4.6 nM and the EC50 [2] was 4.2 nM.

B2: MAM120: Ankyrin repeat domain specific for DLL3 (SEQ ID NO: 4); single domain (1D) DARPin (protein)
chain: DLGTKLLSAAADGQDDEVRELLQAGADVNAKDLFGYTPLHLAAWRGHLEIVEVLLEAGADVNAKDAAGLTPLHLAAWFGHLEIVEVLLEAGADVNAQDVQGVTPADLAAKEGHEDIAEVLQQAA
modifications: Ankyrin repeat domain specific for DLL3 (MAM120)
With B2 the “Blood % ID/g” value (NCI-H82 tumor model; 4 h) was 0.1 % ID/g, the “Kidneys % ID/g” value (NCI-H82 tumor model; 4 h) was 65.5 % ID/g and the “Tumors % ID/g” value (NCI-H82 tumor model; 4 h) was 2.6 % ID/g. For the same molecule, the “Blood % ID/g” value (NCI-H82 tumor model; 24 h) was 0.1 % ID/g, the “Kidneys % ID/g” value (NCI-H82 tumor model; 24 h) was 47.3 % ID/g and the “Tumors % ID/g” value (NCI-H82 tumor model; 24 h) was 2.9 % ID/g.

B3: MAM093 (single domain ankyrin repeat protein, His-tagged) (designed binder)
chain: DLGKKLLAAAAQGQDDEVRELLKAGANVNAKDLFGYTPLHLAAWRGHLEIVEVLLKAGADVNAKDAAGETPLHLAAWFGHLEIVEVLLKAGADVNAQDLQGKTPADLAAKEGHEDIAEVLQKAA
notes: as for B1
Molecule B3 has an EC50 [1] of 5.5 nM and an EC50 [2] of 4.9 nM.

B4: MAM120 (single domain ankyrin repeat protein, His-tagged) (designed binder)
chain: DLGTKLLSAAADGQDDEVRELLQAGADVNAKDLFGYTPLHLAAWRGHLEIVEVLLEAGADVNAKDAAGLTPLHLAAWFGHLEIVEVLLEAGADVNAQDVQGVTPADLAAKEGHEDIAEVLQQAA
notes: as for B1
Work on B4 yielded an EC50 [1] of 8 nM and an EC50 [2] of 7 nM.

B5: MAM088 (single domain ankyrin repeat protein, His-tagged) (designed binder)
chain: DLGKKLLAAAREGQDDEVRELLKAGADVNAKDIWGQTPLHIAAWFGHLEIVEVLLKAGADVNAKDQTGHTPLHLAAKFGHLEIVEVLLKAGADVNAQDLLGRTPADLAAEEGHEDIAEVLQKAA
notes: as for B1
With B5 the EC50 [1] was 5.1 nM and the EC50 [2] was 5 nM.

B6: Non-binding DARPin control comprising SEQ ID NO: 21 (designed binder)
chain: DLGKKLLEAARAGQDDEVRELLKAGADVNAKDKDGYTPLHLAAREGHLEIVEVLLKAGADVNAKDKDGYTPLHLAAREGHLEIVEVLLKAGADVNAQDKSGKTPADLAADAGHEDIAEVLQKAA
notes: Negative control on HEK293T-hDLL3 cells
B6: no binding (tested: 500 nM) [2].

B7: neg. control: negative control DARPin (SEQ ID NO: 26), DLL3-specific domain replaced with non-binding domain, DOTAM-conjugated, Pb-212 labelled (conjugate)
chain: GSDLGKKLLEAARAGQDDEVRELLKAGADVNAKDYFSHTPLHLAARNGHLKIVEVLLKAGADVNAKDFAGKTPLHLAADAGHLEIVEVLLKAGADVNAQDIFGKTPADIAADAGHEDIAEVLQKAAGSPTPTPTTPTPTPTTPTPTPTGSDLGKKLLEAARAGQDDEVRELLKAGADVNAKDKDGYTPLHLAAREGHLEIVEVLLKAGADVNAKDKDGYTPLHLAAREGHLEIVEVLLKAGADVNAQDKSGKTPADLAADAGHEDIAEVLQKAAGSGSC
modifications: DOTAM conjugate, Pb-212 label; Ankyrin repeat protein (control)
For B7, the “Mean Diff.” value (NCI-H82 tumors; Buffer only vs. (4 × 10μCi, 1 wk)) was −64.44.

B8: Rova conjugate: Rova antibody conjugated with chelator (DOTAM) and labeled with Pb-212, used as control molecule (conjugate, chains of the INN, looked up)
VH: QVQLVQSGAEVKKPGASVKVSCKASGYTFTNYGMNWVRQAPGQGLEWMGWINTYTGEPTYADDFKGRVTMTTDTSTSTAYMELRSLRSDDTAVYYCARIGDSSPSDYWGQGTLVTVSS
VL: EIVMTQSPATLSVSPGERATLSCKASQSVSNDVVWYQQKPGQAPRLLIYYASNRYTGIPARFSGSGSGTEFTLTISSLQSEDFAVYYCQQDYTSPWTFGQGTKLEIK
modifications: DOTAM chelator, 212Pb radiolabel
notes: Rova antibody conjugated with chelator (DOTAM) and labeled with Pb-212, used as control molecule
B8 was tested, and the “Mean Diff.” value (NCI-H82 tumors; Buffer vs. conjugate (1 × 10μCi)) was 119.6 and the “Mean Diff.” value (NCI-H82 tumors; Buffer vs. conjugate (4 × 10μCi, injections 2 weeks apart)) was 256.3.
